We go through 1 molecule from patent publication US9493781B2, “Synthetic brassica-derived chloroplast transit peptides” (DOW AGROSCIENCES LLC, priority 2012, dated 2016).

Assay [1] deals with tobacco (cv. Petit Havana). Kind of assay: Postemergence glyphosate tolerance of dgt-28 transformed T1 and T2 tobacco. The assay is classed as in vivo. The conditions noted are these: 14 DAT, 2240 g ae/ha glyphosate (DURANGO DMA). An excerpt:
Postemergence herbicide tolerance in dgt-28 transformed T1 tobacco. T1 resistant plants from each event used in the progeny testing were given unique identifiers and sampled for zygosity analyses of the dgt-28 gene. Zygosity data were used to assign 2 hemizygous and 2 homozygous replicates to each rate of glyphosate applied allowing for a total of 4 replicates per treatment. These plants were compared against wildtype Petite havana tobacco. All plants were sprayed with a track sprayer set at 187 L/ha. The plants were sprayed from a range of 560-4480 g ae/ha DURANGO DMA™. All applications were formulated in water with the addition of 2% w/v ammonium sulfate (AMS). Plants were evaluated at 7 and 14 days after treatment. Plants were assigned an injury rating with respect to overall visual stunting, chlorosis, and necrosis. The T1 generation is segregating, so some variable response is expected due to difference in zygosity.
Rates of DURANGO DMA™ ranging from 420-3360 g ae/ha glyphosate were applied to 2-3 leaf tobacco as previously described.

Assay [2] relates to YFP protein. Kind of assay: Western blot of infiltrated tobacco leaves (YFP expression, transit peptide processing). On the set-up: species or system Nicotiana benthamiana. The conditions noted are these: infiltrated tobacco leaf tissue. The protocol:
Samples of the infiltrated tobacco plants were assayed via Western blotting. Leaf punches were collected and subjected to bead-milling. About 100-200 mg of leaf material was mixed with 2 BBs (steel balls) (Daisy; Rogers, Ark.) and […] of PBST for 3 minutes in a Kleco™ bead mill. The samples were then spun down in a centrifuge at 14,000×g at 4° C. The supernatant was removed and either analyzed directly via Western blot or immunoprecipitated. The immunoprecipitations were performed using the Pierce Direct IP Kit™ (Thermo Scientific; Rockford, Ill.) following the manufacturer's protocol. Approximately, 50 μg of anti-YFP was bound to the resin. The samples were incubated with the resin overnight at 4° C. Next, the samples were washed and eluted the following morning and prepped for analysis by combining equal volumes of 2×8M Urea sample buffer and then boiling the samples for 5 minutes. The boiled samples were run on a 4-12% SDS-Bis Tris gel in MOPS buffer for 40 minutes. The gel was then blotted using the Invitrogen iBlot™ (Life Technologies; Carlsbad, Calif.) following the manufacturer's protocol. The blotted membrane was blocked for 10 minutes using 5% non-fat dry milk in PBS-Tween solution. The membrane was probed with the primary antibody (monoclonal anti-GFP in rabbit) used at a 1:1000 dilution in the 5% non-fat dry milk in PBS-Tween solution for 1 hour. […]
(Immunoblotting shows a protein as a band on a membrane.)

Assay [3] has as its system chloroplasts of tobacco cells. As to the kind of experiment: Tobacco transient assay: confocal microscopy of TraP-YFP localization. The note with it: Agrobacterium-infiltrated tobacco leaves. It counts as cell-based, Nicotiana benthamiana. An excerpt: The Trap8 and TraP9 chimeric chloroplast transit peptide sequences were initially tested via a transient in planta assay. Polynucleotide sequences which encode the Trap8 (SEQ ID NO:5) and TraP9 (SEQ ID NO:6) chimeric chloroplast transit peptide sequences were synthesized. A linker sequence (SEQ ID NO:7) was incorporated between the TraP sequence and the yfp coding sequence. The resulting constructs contained two plant transcription units (PTU). The first PTU was comprised of the Arabidopsis thaliana Ubiquitin 10 promoter (AtUbi10 promoter; Callis, et al., (1990) J. Biol. Chem., 265: 12486-12493), TraP-yellow fluorescent protein fusion gene (TraP-YFP; US Patent App. 2007/0298412), and Agrobacterium tumefaciens ORF 23 3′ untranslated region (AtuORF23 3′UTR; U.S. Pat. No. 5,428,147). […]
Agrobacterium-infiltrated tobacco leaves were severed from the plant, and placed into a petri-dish with water to prevent dehydration. The infiltrated tobacco leaves were observed under blue light excitation with long-pass filter glasses held in place using a Dark Reader Hand Lamp™ (Clare Chemical Research Co.; Dolores, Colo.) to identify undamaged areas of the leaf that were successfully expressing the YFP reporter proteins. […]

B1: TraP8: chimeric chloroplast transit peptide SEQ ID NO:3; N-terminus from Brassica napus EPSPS CTP, C-terminus from Brassica rapa (protein)
chain: MAQSSRICHGVQNPCVIISNLSKSNQNKSPFSVSLKTHQQQRRAYQISSWGLKKSNNGSVIRPVK
modifications: TraP8 chimeric chloroplast transit peptide
notes: N-terminus from Brassica napus EPSPS CTP, C-terminus from Brassica rapa
Turning to B1, in assay [1], the “% Injury Ave” value stood at 9.3%. Also, the “Processing (cleavage) of transit peptide from YFP by Western blot” value in assay [2] is “processed”. For the same molecule, the “Localization of YFP fluorescence in tobacco leaf cells” value in assay [3] is “accumulated within the chloroplasts”.
